# In US20170306033A1 (Amgen, published 2017):
# T1: human PAC1 receptor (human, UniProt P41586 21-468)
# T1 sequence: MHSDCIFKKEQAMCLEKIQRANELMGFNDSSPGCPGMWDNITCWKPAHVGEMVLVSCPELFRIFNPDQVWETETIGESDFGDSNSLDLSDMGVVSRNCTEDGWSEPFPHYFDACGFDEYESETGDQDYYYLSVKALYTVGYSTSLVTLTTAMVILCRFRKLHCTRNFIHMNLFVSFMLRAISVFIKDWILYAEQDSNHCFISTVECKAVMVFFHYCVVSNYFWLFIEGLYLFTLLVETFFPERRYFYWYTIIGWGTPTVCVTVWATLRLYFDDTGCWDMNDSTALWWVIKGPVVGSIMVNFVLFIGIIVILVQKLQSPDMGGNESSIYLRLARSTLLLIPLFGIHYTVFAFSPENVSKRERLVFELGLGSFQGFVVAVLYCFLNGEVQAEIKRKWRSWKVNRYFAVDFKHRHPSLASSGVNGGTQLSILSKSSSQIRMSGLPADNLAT
# Key:
# human CGRP receptor = human CGRP receptor (human, UniProt Q16602 23-461; O60894 27-148); assay: cell-based or functional assay
# human CGRP receptor, sequence (Q16602 23-461 limits assumed, chain 1 of 2): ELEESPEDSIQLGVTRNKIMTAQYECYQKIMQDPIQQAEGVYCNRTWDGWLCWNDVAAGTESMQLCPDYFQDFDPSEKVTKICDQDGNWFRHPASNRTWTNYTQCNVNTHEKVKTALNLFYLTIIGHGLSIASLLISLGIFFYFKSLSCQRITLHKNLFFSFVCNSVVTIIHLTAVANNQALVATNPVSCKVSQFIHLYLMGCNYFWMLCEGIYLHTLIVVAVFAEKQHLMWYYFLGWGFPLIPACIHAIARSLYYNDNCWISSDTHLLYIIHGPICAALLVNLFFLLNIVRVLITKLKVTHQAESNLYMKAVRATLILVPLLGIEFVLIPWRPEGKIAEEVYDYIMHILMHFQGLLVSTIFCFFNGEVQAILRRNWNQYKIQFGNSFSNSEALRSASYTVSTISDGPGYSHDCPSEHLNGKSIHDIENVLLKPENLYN
# human CGRP receptor, sequence (O60894 27-148 limits assumed, chain 2 of 2): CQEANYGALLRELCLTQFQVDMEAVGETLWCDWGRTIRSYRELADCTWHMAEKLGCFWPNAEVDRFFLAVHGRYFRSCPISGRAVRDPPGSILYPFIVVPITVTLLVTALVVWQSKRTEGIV
# human PAC1 receptor = target: T1, human PAC1 receptor; assay: cell-based or functional assay
Binder,Human CGRP Receptor IC50 (human CGRP receptor) [nM],Human PAC1 Receptor IC50 (human PAC1 receptor) [nM],"Human CGRP Receptor IC50 (nM), lot #1 (human CGRP receptor) [nM]","Human CGRP Receptor IC50 (nM), lot #2 (human CGRP receptor) [nM]","Human PAC1 Receptor IC50 (nM), lot #1 (human PAC1 receptor) [nM]","Human PAC1 Receptor IC50 (nM), lot #2 (human PAC1 receptor) [nM]"
"iPS:392516 (bispecific antibody, human IgG1, kappa, lambda, N297G) light: DIQLTQSPSFLSASVGDRVTITCRASQSIGRSLHWYQQKPGKAPKLLIKYASQSLSGVPSRFSGSGSGTEFTLTISSLQPEDFATYYCHQSSRLPFTFGPGTKVDIKRTVAAPSVFIFPPSDEQLKSGTASVVCLLNNFYPREAKVQWKVDNALQSGNSQESVTEQDSKDSTYSLESTLTLSKADYEKHKVYACEVTHQGLSSPVTKSFNRGEC heavy: not shown QVQLVESGGGVVQPGRSLRLSCAASGFTFSSFGMHWVREAPGKGLEWVAVISFDGSIKYSVDSVKGRFTISRDNSKNTLFLQMNSLRAEDTAVYYCARDRLNYYDSSGYYHYKYYGMAVWGQGTTVTVSSASTKGPSVFPLAPSSKSTSGGTAALGCLVKDYFPEPVTVSWNSGALTSGVHTFPAVLQSSGLYSLESVVTVPSSSLGTQTYICNVNHKPSNTKVDKKV",27.9,9.3,,,,
"iPS:392521 (bispecific antibody, human IgG1, kappa, lambda, N297G) light: DIQLTQSPSFLSASVGDRVTITCRASQSIGRSLHWYQQKPGKAPKLLIKYASQSLSGVPSRFSGSGSGTEFTLTISSLQPEDFATYYCHQSSRLPFTFGPGTKVDIKRTVAAPSVFIFPPSDEQLKSGTASVVCLLNNFYPREAKVQWKVDNALQSGNSQESVTEQDSKDSTYSLESTLTLSKADYEKHKVYACEVTHQGLSSPVTKSFNRGEC heavy: not shown QVQLVESGGGVVQPGRSLRLSCAASGFTFSSFGMHWVREAPGKGLEWVAVISFDGSIKYSVDSVKGRFTISRDNSKNTLFLQMNSLRAEDTAVYYCARDRLNYYESSGYYHYKYYGMAVWGQGTTVTVSSASTKGPSVFPLAPSSKSTSGGTAALGCLVKDYFPEPVTVSWNSGALTSGVHTFPAVLQSSGLYSLESVVTVPSSSLGTQTYICNVNHKPSNTKVDKKV",18.8,6.88,,,,
"iPS:392523 (bispecific antibody, human IgG1, kappa, lambda, N297G) light: DIQLTQSPSFLSASVGDRVTITCRASQSIGRSLHWYQEKPGKAPKLLIKYASQSLSGVPSRFSGSGSGTEFTLTISSLQPEDFATYYCHQSSRLPFTFGPGTKVDIKRTVAAPSVFIFPPSDEQLKSGTASVVCLLNNFYPREAKVQWKVDNALQSGNSQESVTEQDSKDSTYSLESTLTLSKADYEKHKVYACEVTHQGLSSPVTKSFNRGEC heavy: not shown QVQLVESGGGVVQPGRSLRLSCAASGFTFSSFGMHWVREAPGKGLEWVAVISFDGSIKYSVDSVKGRFTISRDNSKNTLFLQMNSLRAEDTAVYYCARDRLNYYESSGYYHYKYYGMAVWGQGTTVTVSSASTKGPSVFPLAPSSKSTSGGTAALGCLVKDYFPEPVTVSWNSGALTSGVHTFPAVLQSSGLYSLESVVTVPSSSLGTQTYICNVNHKPSNTKVDKKV",20.4,5.03,,,,
"iPS:392522 (bispecific antibody, human IgG1, kappa, lambda, N297G) light: DIQLTQSPSFLSASVGDRVTITCRASQSIGRSLHWYQEKPGKAPKLLIKYASQSLSGVPSRFSGSGSGTEFTLTISSLQPEDFATYYCHQSSRLPFTFGPGTKVDIKRTVAAPSVFIFPPSDEQLKSGTASVVCLLNNFYPREAKVQWKVDNALQSGNSQESVTEQDSKDSTYSLESTLTLSKADYEKHKVYACEVTHQGLSSPVTKSFNRGEC heavy: not shown QVQLVESGGGVVQPGRSLRLSCAASGFTFSSFGMHWVRQAPGKGLEWVAVISFDGSIKYSVDSVKGRFTISRDNSKNTLFLQMNSLRAEDTAVYYCARDRLNYYESSGYYHYKYYGMAVWGQGTTVTVSSASTKGPSVFPLAPSSKSTSGGTAALGCLVKDYFPEPVTVSWNSGALTSGVHTFPAVLQSSGLYSLESVVTVPSSSLGTQTYICNVNHKPSNTKVDKKV",,,8.8,7.58,9.32,3.29
"iPS:392517 (bispecific antibody, human IgG1, kappa, lambda, N297G) light: DIQLTQSPSFLSASVGDRVTITCRASQSIGRSLHWYQEKPGKAPKLLIKYASQSLSGVPSRFSGSGSGTEFTLTISSLQPEDFATYYCHQSSRLPFTFGPGTKVDIKRTVAAPSVFIFPPSDEQLKSGTASVVCLLNNFYPREAKVQWKVDNALQSGNSQESVTEQDSKDSTYSLESTLTLSKADYEKHKVYACEVTHQGLSSPVTKSFNRGEC heavy: not shown QVQLVESGGGVVQPGRSLRLSCAASGFTFSSFGMHWVRQAPGKGLEWVAVISFDGSIKYSVDSVKGRFTISRDNSKNTLFLQMNSLRAEDTAVYYCARDRLNYYDSSGYYHYKYYGMAVWGQGTTVTVSSASTKGPSVFPLAPSSKSTSGGTAALGCLVKDYFPEPVTVSWNSGALTSGVHTFPAVLQSSGLYSLESVVTVPSSSLGTQTYICNVNHKPSNTKVDKKV",,,10.9,11.5,2.48,7.75
"iPS:392520 (bispecific antibody, human IgG1, kappa, lambda, N297G) light: DIQLTQSPSFLSASVGDRVTITCRASQSIGRSLHWYQQKPGKAPKLLIKYASQSLSGVPSRFSGSGSGTEFTLTISSLQPEDFATYYCHQSSRLPFTFGPGTKVDIKRTVAAPSVFIFPPSDEQLKSGTASVVCLLNNFYPREAKVQWKVDNALQSGNSQESVTEQDSKDSTYSLESTLTLSKADYEKHKVYACEVTHQGLSSPVTKSFNRGEC heavy: not shown QVQLVESGGGVVQPGRSLRLSCAASGFTFSSFGMHWVRQAPGKGLEWVAVISFDGSIKYSVDSVKGRFTISRDNSKNTLFLQMNSLRAEDTAVYYCARDRLNYYESSGYYHYKYYGMAVWGQGTTVTVSSASTKGPSVFPLAPSSKSTSGGTAALGCLVKDYFPEPVTVSWNSGALTSGVHTFPAVLQSSGLYSLESVVTVPSSSLGTQTYICNVNHKPSNTKVDKKV",10.5,6.28,,,,
"iPS:392519 (bispecific antibody, human IgG1, kappa, lambda, N297G) light: DIQLTQSPSFLSASVGDRVTITCRASQSIGRSLHWYQQKPGKAPKLLIKYASQSLSGVPSRFSGSGSGTEFTLTISSLQPEDFATYYCHQSSRLPFTFGPGTKVDIKRTVAAPSVFIFPPSDEQLKSGTASVVCLLNNFYPREAKVQWKVDNALQSGNSQESVTEQDSKDSTYSLESTLTLSKADYEKHKVYACEVTHQGLSSPVTKSFNRGEC heavy: not shown QVQLVESGGGVVQPGRSLRLSCAASGFTFSSFGMHWVREAPGKGLEWVAVISFDGSIKYSVDSVKGRFTISRDNSKNTLFLQMNSLRAEDTAVYYCARDRLNYYESSGYYHYKYYGMAVWGQGTTVTVSSGQPKANPTVTLFPPSSEELQANKATLVCLISDFYPGAVTVAWKADGSPVKAGVETTKPSKQSNNKYAAESYLSLTPEQWKSHRSYSCQVTHEGSTVEKTVAPTECS",81.3,6.87,,,,
"iPS:392518 (bispecific antibody, human IgG1, kappa, lambda, N297G) light: DIQLTQSPSFLSASVGDRVTITCRASQSIGRSLHWYQEKPGKAPKLLIKYASQSLSGVPSRFSGSGSGTEFTLTISSLQPEDFATYYCHQSSRLPFTFGPGTKVDIKRTVAAPSVFIFPPSDEQLKSGTASVVCLLNNFYPREAKVQWKVDNALQSGNSQESVTEQDSKDSTYSLESTLTLSKADYEKHKVYACEVTHQGLSSPVTKSFNRGEC heavy: not shown QVQLVESGGGVVQPGRSLRLSCAASGFTFSSFGMHWVREAPGKGLEWVAVISFDGSIKYSVDSVKGRFTISRDNSKNTLFLQMNSLRAEDTAVYYCARDRLNYYDSSGYYHYKYYGMAVWGQGTTVTVSSASTKGPSVFPLAPSSKSTSGGTAALGCLVKDYFPEPVTVSWNSGALTSGVHTFPAVLQSSGLYSLESVVTVPSSSLGTQTYICNVNHKPSNTKVDKKV",17.8,3.4,,,,
"iPS:392524 (bispecific antibody, human IgG1, kappa, lambda, N297G) light: QSVLTQPPSVSAAPGQKVTISCSGSSSNIGNNYVSWYQQLPGTAPKLLIYDNNKRPSGIPDRFSGSKSGTSTTLGITGLQTGDEADYYCGTWDSRLSAVVFGGGTKLTVLGQPKANPTVTLFPPSSEELQANKATLVCLISDFYPGAVTVAWKADGSPVKAGVETTKPSKQSNNKYAAKSYLSLTPEQWKSHRSYSCQVTHEGSTVEKTVAPTECS heavy: not shown QVQLVESGAEVVKPGASVKVSCKASGFTFSRFAMHWVRQAPGQGLEWMGVISYDGGNKYYAESVKGRVTMTRDTSTSTLYMELSSLRSEDTAVYYCARGYDVLTGYPDYWGQGTLVTVSSTVAAPSVFIFPPSDEQLKSGTASVVCLLNNFYPREAKVQWKVDNALQSGNSQESVTEQDSKDSTYSLKSTLTLSKADYEKHKVYACEVTHQGLSSPVTKSFNRGEC",0.86,81.2,,,,
"iPS:392525 (bispecific antibody, human IgG1, kappa, lambda, N297G) light: QSVLTQPPSVSAAPGQKVTISCSGSSSNIGNNYVSWYQQLPGTAPKLLIYDNNKRPSGIPDRFSGSKSGTSTTLGITGLQTGDEADYYCGTWDSRLSAVVFGGGTKLTVLGQPKANPTVTLFPPSSEELQANKATLVCLISDFYPGAVTVAWKADGSPVKAGVETTKPSKQSNNKYAAKSYLSLTPEQWKSHRSYSCQVTHEGSTVEKTVAPTECS heavy: not shown QVQLVESGAEVVKPGASVKVSCKASGFTFSRFAMHWVRKAPGQGLEWMGVISYDGGNKYYAESVKGRVTMTRDTSTSTLYMELSSLRSEDTAVYYCARGYDVLTGYPDYWGQGTLVTVSSTVAAPSVFIFPPSDEQLKSGTASVVCLLNNFYPREAKVQWKVDNALQSGNSQESVTEQDSKDSTYSLKSTLTLSKADYEKHKVYACEVTHQGLSSPVTKSFNRGEC",1.22,37.1,,,,
